In patent US7078038 (INSTITUT DE RECHERCHE POUR LE DEVELOPPEMENT I R D, dated 2006):

Biological target: T1, W338S gp120 (rgp120 of the HXB2 clone of HIV-IIIB with the W338S mutation) (HIV-1 (HXB2 clone of HIV-IIIB), UniProt P04578 33-511)
T1 construct: domain: gp120; Position counted in HxBc2 numbering; also called muted gp120; mutant gp120
Experiment: FACS on CEM cells: no labelling by anti-CXCR4 12GS after incubation with gp120

B1: CXCR4 receptor on the cell surface (receptor)
chain: MEGISIYTSDNYTEEMGSGDYDSMKEPCFREENANFNKIFLPTIYSIIFLTGIVGNGLVILVMGYQKKLRSMTDKYRLHLSVADLLFVITLPFWAVDAVANWYFGNFLCKAVHVIYTVNLYSSVLILAFISLDRYLAIVHATNSQRPRKLLAEKVVYVGVWIPALLLTIPDFIFANVSEADDRYICDRFYPNDLWVVVFQFQHIMVGLILPGIVILSCYCIIISKLSHSKGHQKRKALKTTVILILAFFACWLPYYIGISIDSFILLEIIKQGCEFENTVHKWISITEALAFFHCCLNPILYAFLGAKFKTSAQHALTSVSRGSSLKILSKGKRGGHSSVSTESESSSFHSS
notes: whole, on cells; also called CXCR4 co-receptor; CEM cells CD4+/CXCR4+
  binding result: binds
